Data: the supplement of paper PMC9112550, “Optimization of the antimicrobial peptide Bac7 by deep mutational scanning” (BMC Biology, 2022)
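Further: peptides expressed intracellularly from a pBAD plasmid library in pooled LB shake-flask culture, induced with 0.3% L-arabinose, DNA abundance read by NGS, three biological replicates, DESeq2 with apeglm shrinkage.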

Each sequence was assayed on Escherichia coli TOP10 (assay: shrunken log2 fold change of peptide-encoding DNA abundance (4.5 h post-induction vs induction); higher = less antimicrobial activity (less host growth inhibition)). Details: time post-induction: 4.5 h; library: site-saturation at positions 5, 18, 19, 20.
In the case of RRIRYRPPRLPRPRPRPSIAPRP, the “shrunken log2 fold change” value is reported as -0.216.
With RRIRDRPPRLPRPRPRPNDLPRP the “shrunken log2 fold change” value was 0.124.
RRIRARPPRLPRPRPRPIKAPRP was tested, and the “shrunken log2 fold change” value was 0.105.
RRIRFRPPRLPRPRPRPCVQPRP was tested, and the “shrunken log2 fold change” value was -0.182.
In the case of RRIRPRPPRLPRPRPRPWAKPRP, the “shrunken log2 fold change” value is reported as -0.0178.
RRIRSRPPRLPRPRPRPEPTPRP was tested, and the “shrunken log2 fold change” value was 0.467.
RRIRVRPPRLPRPRPRPNYKPRP was tested, and the “shrunken log2 fold change” value was -0.509.
In the case of RRIRCRPPRLPRPRPRPTLPPRP, the “shrunken log2 fold change” value is reported as 0.356.
With RRIRFRPPRLPRPRPRPTHWPRP the “shrunken log2 fold change” value was 0.44.
For RRIRVRPPRLPRPRPRPMFLPRP, the “shrunken log2 fold change” value was -0.557.
RRIRVRPPRLPRPRPRPCFGPRP was tested, and the “shrunken log2 fold change” value was -0.263.
In the case of RRIRGRPPRLPRPRPRPADKPRP, the “shrunken log2 fold change” value is reported as 0.365.
In the case of RRIRVRPPRLPRPRPRPEYVPRP, the “shrunken log2 fold change” value is reported as -0.153.
RRIRCRPPRLPRPRPRPISHPRP was tested, and the “shrunken log2 fold change” value was -0.486.
RRIRGRPPRLPRPRPRPMKCPRP was tested, and the “shrunken log2 fold change” value was 0.0384.
With RRIRDRPPRLPRPRPRPWRIPRP the “shrunken log2 fold change” value was -0.139.
With RRIRIRPPRLPRPRPRPCDNPRP the “shrunken log2 fold change” value was -0.178.
RRIRPRPPRLPRPRPRPQHAPRP was tested, and the “shrunken log2 fold change” value was 0.041.
With RRIRGRPPRLPRPRPRPVRVPRP the “shrunken log2 fold change” value was 0.856.
With RRIRARPPRLPRPRPRPDCGPRP the “shrunken log2 fold change” value was 0.966.
In the case of RRIRPRPPRLPRPRPRPFDCPRP, the “shrunken log2 fold change” value is reported as -0.52.
RRIRPRPPRLPRPRPRPLVHPRP was tested, and the “shrunken log2 fold change” value was -0.00919.
RRIRTRPPRLPRPRPRPIAIPRP was tested, and the “shrunken log2 fold change” value was -0.0261.
RRIRDRPPRLPRPRPRPAWAPRP was tested, and the “shrunken log2 fold change” value was 0.713.
For RRIRMRPPRLPRPRPRPIPMPRP, the “shrunken log2 fold change” value was 0.414.
RRIRDRPPRLPRPRPRPRMTPRP was tested, and the “shrunken log2 fold change” value was 0.212.
In the case of RRIRHRPPRLPRPRPRPNQEPRP, the “shrunken log2 fold change” value is reported as -0.00942.
In the case of RRIRPRPPRLPRPRPRPWVMPRP, the “shrunken log2 fold change” value is reported as 0.211.
RRIRPRPPRLPRPRPRPKTYPRP was tested, and the “shrunken log2 fold change” value was -0.451.
RRIRYRPPRLPRPRPRPYHFPRP was tested, and the “shrunken log2 fold change” value was -0.535.
With RRIRLRPPRLPRPRPRPDTLPRP the “shrunken log2 fold change” value was -0.15.
In the case of RRIRCRPPRLPRPRPRPPVFPRP, the “shrunken log2 fold change” value is reported as 0.0601.
RRIRARPPRLPRPRPRPAHFPRP was tested, and the “shrunken log2 fold change” value was 0.25.
RRIRNRPPRLPRPRPRPPSWPRP was tested, and the “shrunken log2 fold change” value was 0.161.
In the case of RRIRDRPPRLPRPRPRPQNEPRP, the “shrunken log2 fold change” value is reported as -0.24.
With RRIRVRPPRLPRPRPRPELHPRP the “shrunken log2 fold change” value was 0.133.
In the case of RRIRFRPPRLPRPRPRPTPDPRP, the “shrunken log2 fold change” value is reported as 0.485.
RRIRFRPPRLPRPRPRPFHIPRP was tested, and the “shrunken log2 fold change” value was -0.663.
RRIRIRPPRLPRPRPRPQPQPRP was tested, and the “shrunken log2 fold change” value was 0.0386.
RRIRWRPPRLPRPRPRPLSIPRP was tested, and the “shrunken log2 fold change” value was -0.0528.
RRIRSRPPRLPRPRPRPDKIPRP was tested, and the “shrunken log2 fold change” value was 0.11.
In the case of RRIRIRPPRLPRPRPRPDLMPRP, the “shrunken log2 fold change” value is reported as -0.396.
For RRIRKRPPRLPRPRPRPGDHPRP, the “shrunken log2 fold change” value was 0.014.
With RRIRVRPPRLPRPRPRPKILPRP the “shrunken log2 fold change” value was -0.0923.
In the case of RRIRTRPPRLPRPRPRPSFCPRP, the “shrunken log2 fold change” value is reported as -0.296.
With RRIRARPPRLPRPRPRPAKYPRP the “shrunken log2 fold change” value was -0.156.
For RRIRKRPPRLPRPRPRPISAPRP, the “shrunken log2 fold change” value was 0.164.
With RRIRRRPPRLPRPRPRPGKLPRP the “shrunken log2 fold change” value was 0.0788.
With RRIRGRPPRLPRPRPRPGYSPRP the “shrunken log2 fold change” value was 2.2.
In the case of RRIRIRPPRLPRPRPRPIPGPRP, the “shrunken log2 fold change” value is reported as -0.191.
For RRIRPRPPRLPRPRPRPAYSPRP, the “shrunken log2 fold change” value was -0.23.
RRIRWRPPRLPRPRPRPGWKPRP was tested, and the “shrunken log2 fold change” value was 0.0668.
With RRIRIRPPRLPRPRPRPKVIPRP the “shrunken log2 fold change” value was 0.0457.
In the case of RRIRMRPPRLPRPRPRPPRHPRP, the “shrunken log2 fold change” value is reported as 0.955.
In the case of RRIRMRPPRLPRPRPRPLQQPRP, the “shrunken log2 fold change” value is reported as 2.85.
In the case of RRIRTRPPRLPRPRPRPNAGPRP, the “shrunken log2 fold change” value is reported as 0.0361.
RRIRSRPPRLPRPRPRPCFRPRP was tested, and the “shrunken log2 fold change” value was -0.349.
In the case of RRIRMRPPRLPRPRPRPHVMPRP, the “shrunken log2 fold change” value is reported as -0.192.
For RRIRDRPPRLPRPRPRPIHEPRP, the “shrunken log2 fold change” value was -0.0852.
For RRIRSRPPRLPRPRPRPCWDPRP, the “shrunken log2 fold change” value was -0.189.
RRIRQRPPRLPRPRPRPEKAPRP was tested, and the “shrunken log2 fold change” value was -0.00536.
In the case of RRIRFRPPRLPRPRPRPNHQPRP, the “shrunken log2 fold change” value is reported as -0.736.
With RRIRGRPPRLPRPRPRPGAPPRP the “shrunken log2 fold change” value was 1.29.
For RRIRQRPPRLPRPRPRPHPGPRP, the “shrunken log2 fold change” value was 0.125.
RRIRERPPRLPRPRPRPGITPRP was tested, and the “shrunken log2 fold change” value was -0.648.
For RRIRDRPPRLPRPRPRPCMAPRP, the “shrunken log2 fold change” value was 0.203.
RRIRTRPPRLPRPRPRPALHPRP was tested, and the “shrunken log2 fold change” value was -0.19.
In the case of RRIRWRPPRLPRPRPRPRYVPRP, the “shrunken log2 fold change” value is reported as -0.147.
In the case of RRIRNRPPRLPRPRPRPEDAPRP, the “shrunken log2 fold change” value is reported as -0.00133.
In the case of RRIRIRPPRLPRPRPRPPPTPRP, the “shrunken log2 fold change” value is reported as 0.834.
In the case of RRIRCRPPRLPRPRPRPDIHPRP, the “shrunken log2 fold change” value is reported as -0.468.
For RRIRFRPPRLPRPRPRPPSNPRP, the “shrunken log2 fold change” value was 0.324.
With RRIRCRPPRLPRPRPRPARIPRP the “shrunken log2 fold change” value was 0.0785.
In the case of RRIRERPPRLPRPRPRPKMPPRP, the “shrunken log2 fold change” value is reported as -0.0401.
RRIRYRPPRLPRPRPRPGCCPRP was tested, and the “shrunken log2 fold change” value was -0.309.
